Results as given in article PMC11363339, “Structural Basis for Methine Excision by a Heme Oxygenase-like Enzyme” (ACS Central Science, 2024).

Molecular target: the molecule itself
Assay: SEC-MALS; size exclusion chromatography coupled with multiangle light scattering on FlcD without a His6-tag

B1: FlcD without a His6-tag (FlcD_(tagless)) (enzyme, Pseudomonas aeruginosa)
chain: MNTRNFSLPQLQNLPIEEARIVADALAVHATSRQIDSAASKLAALAEAGLKGDRQAYAAYQQLLYVLSLSDDVATAQTRRWLARAIYRVEERFMPAADLSRALSEEDFQKRLEQEIAAQSRERHPMSQYVFSGSASRAQLQVFLRHQWFRTFRLYRDAADLLVNLTDVDEAAALARYLYGELGEEDEKGSHPRLLAKLLEAIGLEADFQAVSTMPEEIAYLNNRARAFRHAEVGWGLAVFYITELVVPGNHEKLYRALLQAGLSEDQAEYYKVHISLVPPRAKREWQLIARRIPDVQFQNAFLTSLSQHFRVERAYYDAIWEEMQSVK
notes: FlcD, heme oxygenase-like domain-containing oxidase (HDO) of Pseudomonas aeruginosa, without a His6-tag; see the Supporting Information PDF
stoichiometry N: 2
